B1: glmS ribozyme (parent)
chain: AUAAAAGCGCCAGAACUACAGAAAUGUAGUUGACGAGGAGGAGGUUUAUCGAAUUUUCGGCGGAUGCCUCCAAA

Details in all cases: with glucosamine-6-phosphate
The variants in data set [1] derive from B1. Description: self-cleavage kobs at 40 uM GlcN6P; higher = faster cleavage; RNA array. A digest of the protocol:
(§1)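 Tiles bearing barcoded ribozyme variants, transcribed in situ by E. coli RNA polymerase on sequenced MiSeq chips, were imaged over ~14 h at 37 °C using a hybridised Cy3 probe. Glucosamine-6-phosphate was supplied at 40 μM to 10 mM in HEPES/KCl/Mg(OAc)2 buffer. kobs came from one- or two-exponential decay fits to normalised per-tile medians, and weighted Michaelis–Menten fits then provided kcat and KM.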

In data set [2] the parent is B1. The experiment in a line: self-cleavage kobs at 640 uM GlcN6P; higher = faster cleavage; RNA array. Put shortly: as §1
Variants of B1 are the subject of data set [3]. Description: self-cleavage kobs at 2500 uM GlcN6P; higher = faster cleavage; RNA array. A digest of the protocol: as §1
Variants of B1 are the subject of data set [4]. The experiment in a line: self-cleavage kobs at 160 uM GlcN6P; higher = faster cleavage; RNA array. A digest of the protocol: as §1
Data set [5] covers variants of B1. Description: self-cleavage kobs at 10000 uM GlcN6P; higher = faster cleavage; RNA array. A digest of the protocol: as §1

± gives the standard error. This sample holds only a part of the variants without activity. Some results are limits rather than exact numbers.

As to C16A A42U G63U, the “self-cleavage kobs at 40 uM GlcN6P” value in the data set with glucosamine-6-phosphate [1] was < 1e-05 s⁻¹. In addition, in the data set with glucosamine-6-phosphate [2], the “self-cleavage kobs at 640 uM GlcN6P” value is < 1e-05 s⁻¹. Besides, the “self-cleavage kobs at 2500 uM GlcN6P” value in the data set with glucosamine-6-phosphate [3] was < 1e-05 s⁻¹.

As to G29C C34A, the “self-cleavage kobs at 40 uM GlcN6P” value with glucosamine-6-phosphate [1] is < 1e-05 s⁻¹. Moreover, the “self-cleavage kobs at 160 uM GlcN6P” value with glucosamine-6-phosphate [4] is < 1e-05 s⁻¹. Moreover, the “self-cleavage kobs at 640 uM GlcN6P” value with glucosamine-6-phosphate [2] was < 1e-05 s⁻¹. Moreover, the “self-cleavage kobs at 2500 uM GlcN6P” value with glucosamine-6-phosphate [3] was < 1e-05 s⁻¹. Besides, the “self-cleavage kobs at 10000 uM GlcN6P” value with glucosamine-6-phosphate [5] is < 1e-05 s⁻¹.

Consider G29C G60U C61A, for which the “self-cleavage kobs at 40 uM GlcN6P” value with glucosamine-6-phosphate [1] was < 1e-05 s⁻¹. Also, the “self-cleavage kobs at 640 uM GlcN6P” value in the data set with glucosamine-6-phosphate [2] is < 1e-05 s⁻¹.

As to G37C U57A, in the data set with glucosamine-6-phosphate [1], the “self-cleavage kobs at 40 uM GlcN6P” value is < 1e-05 s⁻¹. For the same variant, in the data set with glucosamine-6-phosphate [2], the “self-cleavage kobs at 640 uM GlcN6P” value was < 1e-05 s⁻¹. In addition, the “self-cleavage kobs at 10000 uM GlcN6P” value in the data set with glucosamine-6-phosphate [5] is < 1e-05 s⁻¹.

A6C G43U C67A: the “self-cleavage kobs at 40 uM GlcN6P” value with glucosamine-6-phosphate [1] is < 1e-05 s⁻¹.

Consider G7A C50U, for which, in the data set with glucosamine-6-phosphate [1], the “self-cleavage kobs at 40 uM GlcN6P” value is < 1e-05 s⁻¹. The “self-cleavage kobs at 160 uM GlcN6P” value in the data set with glucosamine-6-phosphate [4] is < 1e-05 s⁻¹. For the same variant, the “self-cleavage kobs at 640 uM GlcN6P” value with glucosamine-6-phosphate [2] was < 1e-05 s⁻¹. Further, the “self-cleavage kobs at 2500 uM GlcN6P” value with glucosamine-6-phosphate [3] is < 1e-05 s⁻¹. Also, the “self-cleavage kobs at 10000 uM GlcN6P” value in the data set with glucosamine-6-phosphate [5] is < 1e-05 s⁻¹.

A6U C8A: the “self-cleavage kobs at 40 uM GlcN6P” value in the data set with glucosamine-6-phosphate [1] is < 1e-05 s⁻¹. Also, the “self-cleavage kobs at 160 uM GlcN6P” value with glucosamine-6-phosphate [4] is < 1e-05 s⁻¹. For the same variant, in the data set with glucosamine-6-phosphate [3], the “self-cleavage kobs at 2500 uM GlcN6P” value was < 1e-05 s⁻¹. Moreover, the “self-cleavage kobs at 10000 uM GlcN6P” value with glucosamine-6-phosphate [5] is < 1e-05 s⁻¹.

For C8G U30G G60A, the “self-cleavage kobs at 40 uM GlcN6P” value with glucosamine-6-phosphate [1] is < 1e-05 s⁻¹. For the same variant, in the data set with glucosamine-6-phosphate [5], the “self-cleavage kobs at 10000 uM GlcN6P” value is < 1e-05 s⁻¹.

With C11A G51U A52G U57A G66C C70A, in the data set with glucosamine-6-phosphate [1], the “self-cleavage kobs at 40 uM GlcN6P” value was found to be 5.04e-05 ± 1.9e-05 s⁻¹. Further, the “self-cleavage kobs at 10000 uM GlcN6P” value in the data set with glucosamine-6-phosphate [5] was determined as 5e-05 ± 1.4e-05 s⁻¹.

With C34U C50G A53U C68G, the “self-cleavage kobs at 40 uM GlcN6P” value in the data set with glucosamine-6-phosphate [1] amounted to 8.23e-05 ± 1.6e-05 s⁻¹. In addition, the “self-cleavage kobs at 640 uM GlcN6P” value in the data set with glucosamine-6-phosphate [2] is 0.000541 ± 0.00016 s⁻¹. Besides, the “self-cleavage kobs at 10000 uM GlcN6P” value in the data set with glucosamine-6-phosphate [5] worked out at 0.000111 ± 1.6e-05 s⁻¹.

Turning to C8G A12C U31C G32C, in the data set with glucosamine-6-phosphate [1], the “self-cleavage kobs at 40 uM GlcN6P” value is < 1e-05 s⁻¹.

For G9C G43U G44U C58A C71A, the “self-cleavage kobs at 40 uM GlcN6P” value with glucosamine-6-phosphate [1] is < 1e-05 s⁻¹.

For the variant C10G A33C, in the data set with glucosamine-6-phosphate [1], the “self-cleavage kobs at 40 uM GlcN6P” value was < 1e-05 s⁻¹. In addition, in the data set with glucosamine-6-phosphate [4], the “self-cleavage kobs at 160 uM GlcN6P” value is < 1e-05 s⁻¹. The “self-cleavage kobs at 2500 uM GlcN6P” value with glucosamine-6-phosphate [3] is < 1e-05 s⁻¹. Further, the “self-cleavage kobs at 10000 uM GlcN6P” value with glucosamine-6-phosphate [5] is < 1e-05 s⁻¹.

G7A G38C: the “self-cleavage kobs at 40 uM GlcN6P” value with glucosamine-6-phosphate [1] is < 1e-05 s⁻¹. Besides, in the data set with glucosamine-6-phosphate [4], the “self-cleavage kobs at 160 uM GlcN6P” value is < 1e-05 s⁻¹. Moreover, in the data set with glucosamine-6-phosphate [2], the “self-cleavage kobs at 640 uM GlcN6P” value is < 1e-05 s⁻¹. In addition, the “self-cleavage kobs at 2500 uM GlcN6P” value with glucosamine-6-phosphate [3] was < 1e-05 s⁻¹. The “self-cleavage kobs at 10000 uM GlcN6P” value with glucosamine-6-phosphate [5] was < 1e-05 s⁻¹.

On to G32C G37C C58U, for which the “self-cleavage kobs at 40 uM GlcN6P” value in the data set with glucosamine-6-phosphate [1] was < 1e-05 s⁻¹.

As for A48C C50U, the “self-cleavage kobs at 40 uM GlcN6P” value in the data set with glucosamine-6-phosphate [1] is < 1e-05 s⁻¹. The “self-cleavage kobs at 160 uM GlcN6P” value with glucosamine-6-phosphate [4] was < 1e-05 s⁻¹. The “self-cleavage kobs at 640 uM GlcN6P” value with glucosamine-6-phosphate [2] was < 1e-05 s⁻¹. The “self-cleavage kobs at 2500 uM GlcN6P” value with glucosamine-6-phosphate [3] is < 1e-05 s⁻¹. Moreover, the “self-cleavage kobs at 10000 uM GlcN6P” value with glucosamine-6-phosphate [5] was < 1e-05 s⁻¹.

Take C10A A36U: the “self-cleavage kobs at 40 uM GlcN6P” value in the data set with glucosamine-6-phosphate [1] was < 1e-05 s⁻¹. In addition, the “self-cleavage kobs at 160 uM GlcN6P” value with glucosamine-6-phosphate [4] is < 1e-05 s⁻¹. Besides, in the data set with glucosamine-6-phosphate [2], the “self-cleavage kobs at 640 uM GlcN6P” value was < 1e-05 s⁻¹. Further, in the data set with glucosamine-6-phosphate [3], the “self-cleavage kobs at 2500 uM GlcN6P” value is < 1e-05 s⁻¹. Besides, in the data set with glucosamine-6-phosphate [5], the “self-cleavage kobs at 10000 uM GlcN6P” value is < 1e-05 s⁻¹.

C16G C34A: the “self-cleavage kobs at 40 uM GlcN6P” value with glucosamine-6-phosphate [1] is < 1e-05 s⁻¹. Besides, the “self-cleavage kobs at 640 uM GlcN6P” value in the data set with glucosamine-6-phosphate [2] is < 1e-05 s⁻¹. Further, the “self-cleavage kobs at 10000 uM GlcN6P” value with glucosamine-6-phosphate [5] is < 1e-05 s⁻¹.

Turning to C50G C58A C68G C71U, the “self-cleavage kobs at 40 uM GlcN6P” value with glucosamine-6-phosphate [1] is 9.15e-05 ± 1.8e-05 s⁻¹. In addition, the “self-cleavage kobs at 10000 uM GlcN6P” value with glucosamine-6-phosphate [5] stood at 0.00024 ± 5.2e-05 s⁻¹.

For C34G G43C U47A U49C U55G, the “self-cleavage kobs at 40 uM GlcN6P” value in the data set with glucosamine-6-phosphate [1] was < 1e-05 s⁻¹. For the same variant, the “self-cleavage kobs at 10000 uM GlcN6P” value with glucosamine-6-phosphate [5] is < 1e-05 s⁻¹.

Regarding A1C U56G, in the data set with glucosamine-6-phosphate [1], the “self-cleavage kobs at 40 uM GlcN6P” value turned out to be 0.000433 ± 9.4e-05 s⁻¹. In addition, the “self-cleavage kobs at 10000 uM GlcN6P” value in the data set with glucosamine-6-phosphate [5] came to 0.0185 ± 0.0058 s⁻¹.

For the variant A36C A52U, in the data set with glucosamine-6-phosphate [1], the “self-cleavage kobs at 40 uM GlcN6P” value was < 1e-05 s⁻¹. The “self-cleavage kobs at 10000 uM GlcN6P” value in the data set with glucosamine-6-phosphate [5] is < 1e-05 s⁻¹.

Regarding G9C U57A, the “self-cleavage kobs at 40 uM GlcN6P” value with glucosamine-6-phosphate [1] was < 1e-05 s⁻¹. Moreover, in the data set with glucosamine-6-phosphate [2], the “self-cleavage kobs at 640 uM GlcN6P” value was < 1e-05 s⁻¹. In the data set with glucosamine-6-phosphate [3], the “self-cleavage kobs at 2500 uM GlcN6P” value is < 1e-05 s⁻¹.
